Measured values: the Human Domainome abundance scans (Beltran et al. 2025)

B1: Zinc finger homeobox protein 3, residues 2643 to 2698; numbered along this chain, Q15911 (parent)
chain: RLRTTITPEQLEILYQKYLLDSNPTRKMLDHIAHEVGLKKRVVQVWFQNTRARERK

Variants of: B1
Assay: abundance fitness (aPCA) (normalised: wild type 0, dead -1); higher = more abundant; growth selection in yeast, the domain comes from the species named
Conditions: Homo sapiens

Abundance fitness of substitutions, site by site:
L11: P -0.494, Q -0.133, R 0.049, S 0.022, T -0.117, V -0.021, W -0.11, Y -0.024
E12: A -0.07, C -0.111, D -0.109, F -0.282, G -0.228, H -0.069, I -0.438, K -0.625, L -0.188, M 0.335, N -0.074, P -0.87, Q -0.049, S -0.114, T 0.041, V -0.396, W -0.749, Y -0.454
I13: A -0.079, C -0.058, E -0.339, F 0.119, G -0.24, H 0.067, K -0.096, L -0.084, M -0.253, N -0.287, P -0.951, Q -0.095, R -0.123, S -0.184, T -0.01, V 0.057, W -0.172, Y 0.012
L14: A -0.908, C -0.886, D -0.568, E -0.791, G -0.956, H -0.793, I -0.951, K -0.899, M -0.17, N -1.14, P -0.879, Q -0.895, R -0.847, S -0.763, T -1.04, V -0.926, W -0.758
Y15: A -0.202, C -0.368, F -0.444, G 0.126, H -0.152, I 0.183, K 0.051, L 0.016, M -0.049, Q 0.244, R 0.032, S 0.138, T -0.007, V -0.123, W 0.072
Q16: A 0.052, D -0.246, F 0.042, G -0.113, H -0.267, I -0.073, K -0.106, L 0.572, M 0.225, N -0.226, P -1.08, R -0.174, S -0.213, T -0.021, V 0.357, W -0.615, Y -0.436
K17: A -0.08, D -0.651, E 0.007, F 0.528, G -0.528, I -0.628, L -0.303, M 0.114, N 0.228, P -1.05, R 0.099, T -0.59, V -0.52, W -0.056, Y -0.096
Y18: C -0.696, D -0.96, E -0.948, F 0.251, G -0.899, H -1.03, I -0.62, K -0.662, L -0.552, M -0.373, N -0.705, P -0.847, Q -0.698, R -0.865, T -1.03, V -0.644, W -0.401
L19: A -0.075, C -0.032, D -0.211, E -0.254, F -0.36, G -0.175, H -0.14, I -0.583, K -0.022, M 0.039, N -0.422, P -0.535, Q -0.233, R -0.087, S -0.154, V -0.12, W -0.365, Y -0.339
L20: A -0.211, C -0.022, D -0.226, E -0.079, F -0.111, G -0.049, H -0.286, I -0.056, K -0.147, M 0.093, N -0.27, P -1.08, Q 0.109, R -0.331, T -0.057, V 0.002, W -0.227, Y -0.466
D21: C -0.426, E -0.008, F -0.373, G -0.321, I -0.533, K -0.924, L -0.553, M -0.22, P -0.604, Q -0.255, R -0.803, S -0.417, V -0.407, W -0.741, Y -0.675
S22: A -0.003, C -0.136, D 0.075, G -0.034, H -0.24, I -0.589, K -0.178, L -0.643, M -0.247, N -0.273, P 0.099, Q 0.037, R -0.526, T -0.315, V -0.395, W -0.491, Y -0.624
N23: A -0.23, C -0.594, D -0.336, F 0.149, G -0.276, H -0.354, I -0.414, K -0.335, L -0.389, P -0.965, Q 0.066, R -0.118, S -0.113, T -0.379, V -0.37, W -0.155, Y -0.1
P24: A -0.82, C -0.96, D -0.634, E -0.78, F -0.644, G -0.857, H -0.687, I -0.747, K -0.935, L -0.79, M -0.777, N -0.623, Q -0.354, R -0.828, S -0.764, T -0.957, V -0.785, W -0.165, Y -0.548
T25: A -0.243, C -0.191, D 0.189, E -0.081, F -0.605, G -0.394, H -0.448, I -0.502, K -0.506, L -0.552, M -0.256, N -0.206, P -0.145, Q -0.505, R -0.753, S -0.267, V -0.349, W -0.951, Y -0.908
R26: A 0.434, C 0.306, D 0.458, E 0.419, F 0.029, G 0.386, H 0.324, I 0.323, K 0.123, L 0.266, N 0.339, P 0.35, S 0.428, V 0.383, W 0.401, Y -0.031
K27: A 0.018, C -0.342, D 0.229, E 0.243, F -0.293, G 0.077, I -0.028, M -0.177, N -0.246, P 0.16, R -0.444, T 0.036, V -0.007, Y -0.241
M28: I -0.557
L29: A -0.552, C -0.056, D -0.805, E -0.159, F 0.069, G -0.683, H -0.766, I 0.167, K -0.695, M 0.028, N -0.724, P -0.8, Q -0.254, R -0.544, S -0.488, T -0.273, V -0.043
D30: A -0.046, C -0.486, E -0.29, F -0.446, G -0.073, H 0.007, I -0.071, K -0.214, L -0.435, M -0.314, P -0.543, Q 0.1, R -0.124, S -0.108, T -0.312, V -0.223, W -0.442, Y -0.269
H31: A 0.109, C 0.096, D 0.348, E 0.265, F -0.068, G 0.198, I 0.009, K -0.166, L 0.056, M 0.073, N 0.315, P -0.836, Q 0.169, R -0.237, S 0.215, V 0.134, W -0.251, Y -0.014
I32: A -0.886, C -0.749
